# Legend:
# Assay type in all cases: biochemical
# ARG = ARG (Homo sapiens, UniProt P42684); assay: TR-FRET kinase assay, ARG; conditions: Kinase Concentration 0.5 nM; 50 nM ULight-labeled substrate, 200 micromolar ATP, 2 hours
# Description: (§1) TR-FRET kinase assays are performed under standardized conditions: various individual kinases are incubated with 50 nM of kinase substrate BRB1 labeled with the TR-FRET acceptor dye ULight (PerkinElmer) and 200 micromolar ATP in 10 μL of kinase assay buffer (50 mM HEPES pH7.5, 10 mM MgCl2, 3 mM MnCl2, 1 mM EGTA, 2 mM DTT and 0.01% Tween-20) for 2 hours at room temperature. Reactions are stopped with EDTA, and anti-phospho-tyrosine antibodies (clone PT66) labeled with the TR-FRET europium chelate donor dye are added to a final concentration of 2 nM in a final volume of 20 μL. The TR-FRET signal emitted at 665 nm is read one hour after the addition of antibodies using a TR-FRET plate reader such as the Envision® Multilabel Plate reader (PerkinElmer). The emitted signal at 665 nm is proportional to the extent of peptide phosphorylation, Control reactions indicative of background are performed excluding ATP from the reaction.
# (§2) Assay conditions are identical to those used described for FIG. 1.
# FYN = FYN (Homo sapiens, UniProt P06241); assay: TR-FRET kinase assay, FYN; conditions: Kinase Concentration 0.25 nM; 50 nM ULight-labeled substrate, 200 micromolar ATP, 2 hours
# Description: as §1, §2
# DDR1 = DDR1 (Homo sapiens, UniProt Q08345); assay: TR-FRET kinase assay, DDR1; conditions: Kinase Concentration 0.5 nM; 50 nM ULight-labeled substrate, 200 micromolar ATP, 2 hours
# Description: as §1, §2
# FLT1 = FLT1 (Homo sapiens, UniProt P17948); assay: TR-FRET kinase assay, FLT1; conditions: Kinase Concentration 0.25 nM; 50 nM ULight-labeled substrate, 200 micromolar ATP, 2 hours
# Description: as §1, §2
# MER = molecular target: T1, MER (Homo sapiens, UniProt Q12866); assay: TR-FRET kinase assay, MER; conditions: Kinase Concentration 0.25 nM; 50 nM ULight-labeled substrate, 200 micromolar ATP, 2 hours
# T1 sequence (Q12866 21-999): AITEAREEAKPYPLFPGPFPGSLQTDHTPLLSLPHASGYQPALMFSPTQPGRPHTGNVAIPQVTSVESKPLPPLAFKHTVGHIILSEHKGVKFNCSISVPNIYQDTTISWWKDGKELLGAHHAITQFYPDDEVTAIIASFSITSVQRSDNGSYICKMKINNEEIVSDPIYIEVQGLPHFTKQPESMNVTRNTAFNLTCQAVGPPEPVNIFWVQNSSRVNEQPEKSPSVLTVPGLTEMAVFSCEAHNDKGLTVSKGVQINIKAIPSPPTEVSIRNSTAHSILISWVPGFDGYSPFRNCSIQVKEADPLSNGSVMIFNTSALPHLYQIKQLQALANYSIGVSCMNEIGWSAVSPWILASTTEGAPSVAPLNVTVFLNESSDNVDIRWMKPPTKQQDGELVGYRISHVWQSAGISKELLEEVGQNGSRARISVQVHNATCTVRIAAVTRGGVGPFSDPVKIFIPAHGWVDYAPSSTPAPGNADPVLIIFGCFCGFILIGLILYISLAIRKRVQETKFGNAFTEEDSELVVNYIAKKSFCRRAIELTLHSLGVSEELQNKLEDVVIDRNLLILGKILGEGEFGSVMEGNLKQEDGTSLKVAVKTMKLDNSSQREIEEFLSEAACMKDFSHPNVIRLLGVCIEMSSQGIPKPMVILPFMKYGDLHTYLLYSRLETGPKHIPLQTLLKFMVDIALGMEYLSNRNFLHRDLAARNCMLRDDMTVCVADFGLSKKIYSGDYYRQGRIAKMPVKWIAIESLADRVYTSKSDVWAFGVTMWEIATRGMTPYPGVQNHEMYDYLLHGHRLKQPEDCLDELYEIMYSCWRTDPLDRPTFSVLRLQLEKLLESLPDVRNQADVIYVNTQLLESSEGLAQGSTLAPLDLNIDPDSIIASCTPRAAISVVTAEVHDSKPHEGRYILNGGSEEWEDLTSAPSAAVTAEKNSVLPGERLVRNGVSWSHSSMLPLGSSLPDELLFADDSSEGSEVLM
# Description: as §1, §2
# PDGFRβ = PDGFRβ (Homo sapiens, UniProt P09619); assay: TR-FRET kinase assay, PDGFRβ; conditions: Kinase Concentration 0.25 nM; 50 nM ULight-labeled substrate, 200 micromolar ATP, 2 hours
# Description: as §1, §2
# Eph4A tyrosine kinase = Eph4A tyrosine kinase (Homo sapiens, UniProt P54764); assay: Stability of TR-FRET signal at 665 nm in kinase assay; conditions: for Average Signal at 665 nm: Eph4A 2 nM, 50 nM labeled peptide or 200 nM labeled co-polymer, 50 micromolar ATP
# Description: as §1
# An assay comparing the stability of the random co-polymers poly-EAY, poly-EY and peptide BRB1 (SEQ ID No.3) is performed in 384-well format. Assay conditions are similar to those used in Example 1. The Eph4A tyrosine kinase is assayed at 2 nM with 50 nM of labeled peptide of SEQ ID No. 3, 200 nM labeled poly-EY or 200 nM poly-EAY and 50 micromolar ATP in 10 μL of kinase assay buffer. The reaction mixture is incubated for one hour at room temperature. Reactions are stopped with EDTA, and anti-phospho-tyrosine antibodies (clone PT66) labeled with the TR-FRET europium chelate donor dye are added to a concentration of 2 nM in a final volume of 20 μL. The TR-FRET signal emitted at 665 nm is read one, two, four, 18 and 24 hours after the addition of antibodies using a TR-FRET plate reader.
# Chain of Eph4A tyrosine kinase (P54764 20-986): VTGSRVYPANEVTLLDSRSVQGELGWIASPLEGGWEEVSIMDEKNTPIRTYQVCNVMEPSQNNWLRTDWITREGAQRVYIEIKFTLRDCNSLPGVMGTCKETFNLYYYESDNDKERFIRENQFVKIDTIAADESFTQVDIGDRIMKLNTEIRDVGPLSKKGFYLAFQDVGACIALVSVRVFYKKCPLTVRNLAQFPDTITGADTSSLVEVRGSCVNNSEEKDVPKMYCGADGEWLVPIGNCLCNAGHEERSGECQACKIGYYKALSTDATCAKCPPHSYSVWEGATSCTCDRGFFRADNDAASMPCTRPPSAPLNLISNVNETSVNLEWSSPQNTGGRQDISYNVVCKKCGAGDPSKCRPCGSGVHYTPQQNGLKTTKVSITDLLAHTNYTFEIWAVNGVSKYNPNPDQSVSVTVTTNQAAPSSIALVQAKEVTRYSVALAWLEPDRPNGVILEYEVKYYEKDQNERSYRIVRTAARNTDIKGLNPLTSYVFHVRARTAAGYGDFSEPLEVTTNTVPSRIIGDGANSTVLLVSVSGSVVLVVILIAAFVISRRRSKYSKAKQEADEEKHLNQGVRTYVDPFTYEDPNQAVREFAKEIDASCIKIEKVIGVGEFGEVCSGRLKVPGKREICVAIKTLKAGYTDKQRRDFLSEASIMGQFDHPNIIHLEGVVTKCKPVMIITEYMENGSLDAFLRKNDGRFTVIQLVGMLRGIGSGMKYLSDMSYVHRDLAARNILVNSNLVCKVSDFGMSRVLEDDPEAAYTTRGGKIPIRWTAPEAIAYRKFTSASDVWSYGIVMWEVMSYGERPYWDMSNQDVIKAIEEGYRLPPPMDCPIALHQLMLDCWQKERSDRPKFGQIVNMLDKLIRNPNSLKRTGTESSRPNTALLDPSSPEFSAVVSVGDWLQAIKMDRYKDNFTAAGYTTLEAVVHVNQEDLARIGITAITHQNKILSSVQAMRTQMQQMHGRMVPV
# Chain of ARG (P42684 whole entry): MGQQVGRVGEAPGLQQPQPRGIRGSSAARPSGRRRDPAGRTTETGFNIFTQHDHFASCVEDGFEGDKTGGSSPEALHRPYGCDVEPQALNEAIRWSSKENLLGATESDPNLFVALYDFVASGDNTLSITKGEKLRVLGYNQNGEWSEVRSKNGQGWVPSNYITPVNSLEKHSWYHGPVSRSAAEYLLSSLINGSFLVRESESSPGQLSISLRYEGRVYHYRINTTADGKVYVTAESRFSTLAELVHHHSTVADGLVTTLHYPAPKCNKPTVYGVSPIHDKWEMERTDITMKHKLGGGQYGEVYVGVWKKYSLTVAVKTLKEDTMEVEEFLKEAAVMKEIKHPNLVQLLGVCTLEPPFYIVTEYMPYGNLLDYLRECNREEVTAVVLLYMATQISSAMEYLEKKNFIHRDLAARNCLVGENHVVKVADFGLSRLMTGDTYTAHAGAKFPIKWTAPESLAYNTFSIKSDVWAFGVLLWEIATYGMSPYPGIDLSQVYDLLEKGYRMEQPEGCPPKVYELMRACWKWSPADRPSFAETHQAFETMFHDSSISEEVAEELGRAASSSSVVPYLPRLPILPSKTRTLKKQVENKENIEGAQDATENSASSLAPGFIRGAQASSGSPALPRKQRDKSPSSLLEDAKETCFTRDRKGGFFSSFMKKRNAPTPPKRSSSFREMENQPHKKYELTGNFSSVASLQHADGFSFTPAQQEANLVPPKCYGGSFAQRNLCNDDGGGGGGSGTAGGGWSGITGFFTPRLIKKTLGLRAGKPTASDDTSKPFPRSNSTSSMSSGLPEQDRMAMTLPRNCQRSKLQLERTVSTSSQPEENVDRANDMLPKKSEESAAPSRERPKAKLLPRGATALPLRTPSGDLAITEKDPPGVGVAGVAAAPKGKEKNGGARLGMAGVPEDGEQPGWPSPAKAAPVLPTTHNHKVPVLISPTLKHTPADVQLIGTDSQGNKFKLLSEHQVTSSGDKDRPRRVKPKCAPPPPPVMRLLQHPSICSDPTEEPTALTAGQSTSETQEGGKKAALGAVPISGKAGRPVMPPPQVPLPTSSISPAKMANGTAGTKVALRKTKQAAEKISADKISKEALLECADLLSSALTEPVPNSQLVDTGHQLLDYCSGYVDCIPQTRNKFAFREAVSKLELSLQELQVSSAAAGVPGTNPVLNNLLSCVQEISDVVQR
# Chain of FLT1 (P17948 27-1338, species assumed): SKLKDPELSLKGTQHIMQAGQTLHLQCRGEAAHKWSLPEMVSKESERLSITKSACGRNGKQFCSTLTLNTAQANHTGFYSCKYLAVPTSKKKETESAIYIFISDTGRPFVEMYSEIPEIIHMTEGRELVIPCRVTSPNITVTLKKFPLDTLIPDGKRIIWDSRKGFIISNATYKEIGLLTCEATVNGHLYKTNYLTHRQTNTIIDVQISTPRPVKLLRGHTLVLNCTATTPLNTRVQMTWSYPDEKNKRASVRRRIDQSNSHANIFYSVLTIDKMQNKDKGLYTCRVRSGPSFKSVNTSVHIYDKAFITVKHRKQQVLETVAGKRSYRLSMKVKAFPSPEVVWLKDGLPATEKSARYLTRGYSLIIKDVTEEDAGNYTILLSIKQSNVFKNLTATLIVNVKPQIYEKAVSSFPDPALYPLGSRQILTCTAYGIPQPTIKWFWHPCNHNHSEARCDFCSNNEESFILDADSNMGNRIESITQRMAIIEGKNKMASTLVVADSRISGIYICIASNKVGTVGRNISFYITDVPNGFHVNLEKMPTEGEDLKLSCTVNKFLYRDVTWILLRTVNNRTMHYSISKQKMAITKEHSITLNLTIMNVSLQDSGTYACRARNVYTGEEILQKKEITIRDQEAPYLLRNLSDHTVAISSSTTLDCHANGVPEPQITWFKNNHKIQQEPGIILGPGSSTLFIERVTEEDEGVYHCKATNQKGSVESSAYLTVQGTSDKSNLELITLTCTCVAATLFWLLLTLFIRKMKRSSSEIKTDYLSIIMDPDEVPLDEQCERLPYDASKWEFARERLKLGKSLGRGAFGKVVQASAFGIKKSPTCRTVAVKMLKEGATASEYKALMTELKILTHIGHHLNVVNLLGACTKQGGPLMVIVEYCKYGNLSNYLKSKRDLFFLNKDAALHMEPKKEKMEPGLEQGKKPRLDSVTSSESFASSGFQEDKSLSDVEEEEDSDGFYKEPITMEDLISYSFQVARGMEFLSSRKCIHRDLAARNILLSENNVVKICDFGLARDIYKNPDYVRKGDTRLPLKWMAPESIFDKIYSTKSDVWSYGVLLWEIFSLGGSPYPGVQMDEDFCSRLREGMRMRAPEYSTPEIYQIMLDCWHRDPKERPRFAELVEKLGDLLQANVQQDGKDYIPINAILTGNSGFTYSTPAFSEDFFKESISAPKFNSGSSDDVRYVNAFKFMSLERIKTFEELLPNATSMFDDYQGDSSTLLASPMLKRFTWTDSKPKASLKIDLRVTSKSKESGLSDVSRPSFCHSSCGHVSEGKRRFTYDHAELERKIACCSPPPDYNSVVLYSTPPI
# Chain of DDR1 (Q08345 19-913, species assumed): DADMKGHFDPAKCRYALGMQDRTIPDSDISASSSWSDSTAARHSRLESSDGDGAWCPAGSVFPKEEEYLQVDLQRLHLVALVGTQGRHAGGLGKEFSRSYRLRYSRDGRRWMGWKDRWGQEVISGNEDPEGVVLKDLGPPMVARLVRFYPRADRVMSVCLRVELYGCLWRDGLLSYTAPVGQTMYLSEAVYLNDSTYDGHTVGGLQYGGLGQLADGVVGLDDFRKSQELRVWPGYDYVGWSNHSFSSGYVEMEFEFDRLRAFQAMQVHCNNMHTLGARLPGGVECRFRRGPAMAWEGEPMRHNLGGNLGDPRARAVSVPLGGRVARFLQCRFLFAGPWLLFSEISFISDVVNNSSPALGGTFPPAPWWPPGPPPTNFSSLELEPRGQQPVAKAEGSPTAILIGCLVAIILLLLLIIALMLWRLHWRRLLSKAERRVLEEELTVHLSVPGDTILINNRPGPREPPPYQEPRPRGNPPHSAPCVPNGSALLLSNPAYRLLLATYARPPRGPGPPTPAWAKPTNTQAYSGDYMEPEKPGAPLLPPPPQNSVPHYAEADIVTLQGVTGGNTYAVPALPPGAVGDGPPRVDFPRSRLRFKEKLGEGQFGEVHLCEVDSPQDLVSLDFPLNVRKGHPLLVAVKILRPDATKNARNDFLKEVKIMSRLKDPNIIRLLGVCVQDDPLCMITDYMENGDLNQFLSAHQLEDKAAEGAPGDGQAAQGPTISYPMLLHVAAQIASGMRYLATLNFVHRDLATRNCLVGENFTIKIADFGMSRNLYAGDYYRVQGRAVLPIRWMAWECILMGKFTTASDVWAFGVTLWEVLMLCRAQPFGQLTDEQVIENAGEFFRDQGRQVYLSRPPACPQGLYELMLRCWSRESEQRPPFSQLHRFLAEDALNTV
# Chain of FYN (P06241 whole entry, species assumed): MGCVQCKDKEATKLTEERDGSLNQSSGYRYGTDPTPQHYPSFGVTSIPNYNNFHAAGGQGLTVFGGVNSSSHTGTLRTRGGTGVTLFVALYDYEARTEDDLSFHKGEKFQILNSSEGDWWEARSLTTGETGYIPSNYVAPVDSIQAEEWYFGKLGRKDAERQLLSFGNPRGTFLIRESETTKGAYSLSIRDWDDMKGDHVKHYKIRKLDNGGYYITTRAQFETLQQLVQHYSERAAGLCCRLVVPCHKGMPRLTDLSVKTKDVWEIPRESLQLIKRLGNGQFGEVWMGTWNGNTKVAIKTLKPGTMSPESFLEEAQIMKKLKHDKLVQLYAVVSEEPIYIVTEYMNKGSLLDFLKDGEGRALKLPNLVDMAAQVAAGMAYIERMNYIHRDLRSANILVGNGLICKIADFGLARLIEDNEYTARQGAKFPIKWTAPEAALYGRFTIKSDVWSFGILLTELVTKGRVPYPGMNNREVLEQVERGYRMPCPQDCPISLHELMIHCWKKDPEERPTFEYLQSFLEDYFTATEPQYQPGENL
sequence,measurement,setting,value
C AYE AYE AYE K EYA EYA EYA K AYA EYE R (CAYEAYEAYEKEYAEYAEYAKAYAEYER; tyrosine kinase substrate peptide) [BRB1],Signal to Noise ratio with BRB1 Peptide,ARG,10.6
same,Signal to Noise ratio with BRB1 Peptide,FYN,25.9
same,Signal to Noise ratio with BRB1 Peptide,DDR1,1.0
same,Signal to Noise ratio with BRB1 Peptide,FLT1,4.1
same,Signal to Noise ratio with BRB1 Peptide,MER,12.9
same,Signal to Noise ratio with BRB1 Peptide,PDGFRβ,4.7
same,Average Signal at 665 nm,Eph4A tyrosine kinase; Incubation 1 h after addition of antibodies,134156
same,Average Signal at 665 nm,Eph4A tyrosine kinase; Incubation 18 h after addition of antibodies,117226
same,% Decrease of average signal at 665 nm,Eph4A tyrosine kinase; Incubation 18 h versus 1 h,12.6%
same,Average Signal at 665 nm,Eph4A tyrosine kinase; Incubation 24 h after addition of antibodies,115534
same,% Decrease of average signal at 665 nm,Eph4A tyrosine kinase; Incubation 24 h versus 1 h,13.9%
same,% Decrease of average signal at 665 nm,"Eph4A tyrosine kinase; Incubation 24 h versus 1 h, listed as SEQ ID No. 3",14%
same,Stability of specific TR-FRET signal at 665 nm over time,Eph4A tyrosine kinase; after addition of europium-labeled anti-phospho-tyrosine antibody,more stable
